Results on 78 sequences are retold here after the supplement of paper PMC10724198.

± gives the standard deviation of the averaged measurements.
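Note: PSI is a weighted mean of sequencing reads over stability bins, variants kept only with over 10 reads, mCherry proximal and sfGFP distal, peptide attached via GGGS linker.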

The data set relates to Saccharomyces cerevisiae. As to the kind of experiment: protein stability index of tFT-peptide fusion (C-terminal peptide) (PSI (0-1 scale)); higher = more stable (slower turnover). The conditions noted are these: genetic background: wild type; temperature: 30 C. As for the experimental part:
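Multiplexed protein stability (MPS) profiling in S. cerevisiae. Random 12-aa peptides (tFT-X12 library) are fused to the C-terminus of a sfGFP-mCherry tandem fluorescent timer, after mCherry and a GGGS linker. Cells are FACS-sorted into 8 mCherry/sfGFP bins and deep-sequenced. The protein stability index (PSI) is the read-weighted bin average, scaled from 0 (unstable) to 1 (stable). Only peptides with >10 reads are reported; cells were grown at 30 °C in SC-His with glucose.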
The sequence GLVGLSLSSCGR came in with a protein stability index of 0.653 ± 0.088. Next, GLVLPGHLTLAS: 0.628 ± 0.08; GLVRGRLVGLED: 0.646 ± 0.056. Next, GLVVATECGGRP: 0.648 ± 0.024. Under GLVVWFFQSPHF stands 0.597 ± 0.036; under GLYAVHEAGWRP, 0.701 ± 0.089.

The sequence GLYVDRTVEVGG came in with a protein stability index of 0.6228 ± 0.0035. Under GMADVCRVGSRG stands 0.674 ± 0.033. Under GMRAGLGRWRSM stands 0.737 ± 0.1. In turn, GNELLINRVKPR yielded a protein stability index of 0.698 ± 0.0085. Under GNGRGKKEGPKN stands 0.657 ± 0.01; under GNIKPNEDRGGP, 0.793 ± 0.027. Under GNRVGQREEIEK stands 0.655 ± 0.023. Under GNRWSLTVTPNR stands 0.69 ± 0.028; under GNSAGSGGGGRF, 0.706 ± 0.061. Regarding GNSNDPALQPKQ, the protein stability index was determined as 0.68 ± 0.044. Under GPALLLHRLTAP stands 0.684 ± 0.066. GPCPHLGLVVES displayed a protein stability index of 0.703 ± 0.34.

The sequence GPFPMRRTFRFA yielded a protein stability index of 0.667 ± 0.056.

With GPGRGWQGGPKL, the protein stability index was 0.739 ± 0.023. The sequence GPIGVMLCNHHS came in with a protein stability index of 0.674 ± 0.015. GPPPAPPPLDAL showed a protein stability index of 0.734 ± 0.053. Next, GPPPPATPTPPR: 0.767 ± 0.075; GPRSLVEITITD: 0.669 ± 0.029. GPSLLAAQAHTN: the protein stability index stood at 0.704 ± 0.038. Next, GPSQLRLSSCSF: 0.716 ± 0.041; GPSTPPPRAPGT: 0.7045 ± 0.0031; GPTPAPSASRCF: 0.6114 ± 0.0058. Next, GPVFLPLFWAGV: 0.6846 ± 0.0051. Under GPVGPGECYDYT stands 0.706 ± 0.00044; under GPVLILLSNNEM, 0.731 ± 0.061; under GPVTPADASPHC, 0.686 ± 0.034. For GQFASFQSTRPP, the protein stability index is 0.754 ± 0.077. Next, GQGKWGGGGDER: 0.68276 ± 0.0003; GQKRKKKGGKEE: 0.685 ± 0.065; GQLAERYRPARP: 0.6903 ± 0.003.

The sequence GQNASYFPRRTG registered a protein stability index of 0.643 ± 0.052. On to GQRGGRGKENSD, for which the protein stability index is 0.629 ± 0.04.

The sequence GQTTVLPSIYKR gave a protein stability index of 0.673 ± 0.047. Under GQWCGRLLRSGS stands 0.6845 ± 0.0059. Under GRCWAGAMGVVG stands 0.71 ± 0.015; under GRETGGGKSRRK, 0.687 ± 0.013.

Consider GRFKLCWWCCGV, for which the protein stability index was 0.724 ± 0.035. Under GRGAKPYIKQVY stands 0.721 ± 0.034; under GRGGGGGLWVRV, 0.651 ± 0.023. Next, GRGGSIGEEWGG: 0.693 ± 0.021; GRGLFRVVGLWV: 0.614 ± 0.043; GRGLRWSWGCGG: 0.693 ± 0.064. Next, GRGLVSWEAGGV: 0.716 ± 0.018. Sequence GRKSESEEEQRR yielded a protein stability index of 0.677 ± 0.052. Next, GRLHHYGRCAQG: 0.664 ± 0.02. Next, GRLPPYLSRRLR: 0.7039 ± 0.0012; GRLWGGIKGGMG: 0.663 ± 0.0096. As for GRRLSGWGAWVV, the protein stability index was determined as 0.724 ± 0.063.

In the case of GRSAVRADFPFF, the protein stability index stood at 0.703 ± 0.16.

Sequence GRSITTSCTTER showed a protein stability index of 0.673 ± 0.036. Under GRSNRRPWRSGL stands 0.649 ± 0.018; under GRTDRPTDINSN, 0.677 ± 0.052. Under GRTNQKKEWIIR stands 0.718 ± 0.01; under GRVAGNERGGGR, 0.6083 ± 0.006; under GRVGCGRNRLWS, 0.67 ± 0.053. For GRVGFSRSFKCC, the protein stability index is 0.641 ± 0.14. Next, GRVGGGVEPCFV: 0.679 ± 0.021; GRVGRGGAVGEW: 0.671 ± 0.022; GRWRRWSSEGLG: 0.684 ± 0.026. GSAGYLCQCSDI had a protein stability index of 0.681 ± 0.017.

Consider GSCPPHPALPHL, for which the protein stability index was found to be 0.713 ± 0.048. With GSEAVQRKNESC, the protein stability index came out at 0.724 ± 0.08. Under GSFLSAQRPCPV stands 0.661 ± 0.023; under GSFPPAAHFSPD, 0.702 ± 0.043. Under GSGGGGGYVSGN stands 0.69 ± 0.021.

GSKISIKDKAQV: the protein stability index is 0.685 ± 0.07. Under GSLSIVVCSFEF stands 0.542 ± 0.044. GSLVSKLGLGSG displayed a protein stability index of 0.69 ± 0.011. Next, GSPAVACSSPFF: 0.754 ± 0.073; GSRSKLPICGCL: 0.809 ± 0.18; GSRSPEARARFV: 0.68748 ± 0.00064. Next, GSRSPPPLRPPP: 0.6755 ± 0.0012.
